Source: paper PMC9394474

Biological target: human hisTRIM7-PRYSPRY (human) (UniProt Q9C029)
Test: ITC

Substance: ac-LLQ (peptide)
- Kd: 39 µM

Substance: dipeptide LQ
- Kd: 200 µM
